Measurements from US20230034906A1 (TRINOMAB BIOTECH, published 2023).

How the values were obtained:
[1] = target: T1, N208Q mutant of gB glycoprotein (gB_Towne protein) (human cytomegalovirus, strain Towne, UniProt F5HB53 25-700); test: indirect ELISA, antibody titrated on gB glycoprotein mutant
T1 construct: also called gB glycoprotein N208Q mutant
T1 chain: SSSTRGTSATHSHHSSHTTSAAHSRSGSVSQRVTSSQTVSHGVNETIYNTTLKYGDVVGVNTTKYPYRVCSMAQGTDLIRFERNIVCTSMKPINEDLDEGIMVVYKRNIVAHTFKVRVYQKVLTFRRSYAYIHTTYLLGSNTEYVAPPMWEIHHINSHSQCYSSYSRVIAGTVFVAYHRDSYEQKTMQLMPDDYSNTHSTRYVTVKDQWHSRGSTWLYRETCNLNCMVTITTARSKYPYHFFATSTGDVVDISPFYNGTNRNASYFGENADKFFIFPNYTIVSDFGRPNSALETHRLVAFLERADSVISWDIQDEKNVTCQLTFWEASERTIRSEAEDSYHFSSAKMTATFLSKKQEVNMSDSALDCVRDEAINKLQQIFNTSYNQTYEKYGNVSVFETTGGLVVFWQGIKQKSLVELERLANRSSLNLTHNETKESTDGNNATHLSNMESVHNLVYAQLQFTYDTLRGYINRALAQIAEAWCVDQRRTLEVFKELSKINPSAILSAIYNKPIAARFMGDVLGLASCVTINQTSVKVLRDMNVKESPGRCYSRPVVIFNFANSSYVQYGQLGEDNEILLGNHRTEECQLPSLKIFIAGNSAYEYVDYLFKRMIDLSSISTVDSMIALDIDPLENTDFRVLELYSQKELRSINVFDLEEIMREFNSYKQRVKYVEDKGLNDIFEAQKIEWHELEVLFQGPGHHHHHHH

[2] = target: T2, gB_Towne protein with N417 mutated into glutamine (human cytomegalovirus, strain Towne, UniProt F5HB53 25-700); test: as above
T2 chain: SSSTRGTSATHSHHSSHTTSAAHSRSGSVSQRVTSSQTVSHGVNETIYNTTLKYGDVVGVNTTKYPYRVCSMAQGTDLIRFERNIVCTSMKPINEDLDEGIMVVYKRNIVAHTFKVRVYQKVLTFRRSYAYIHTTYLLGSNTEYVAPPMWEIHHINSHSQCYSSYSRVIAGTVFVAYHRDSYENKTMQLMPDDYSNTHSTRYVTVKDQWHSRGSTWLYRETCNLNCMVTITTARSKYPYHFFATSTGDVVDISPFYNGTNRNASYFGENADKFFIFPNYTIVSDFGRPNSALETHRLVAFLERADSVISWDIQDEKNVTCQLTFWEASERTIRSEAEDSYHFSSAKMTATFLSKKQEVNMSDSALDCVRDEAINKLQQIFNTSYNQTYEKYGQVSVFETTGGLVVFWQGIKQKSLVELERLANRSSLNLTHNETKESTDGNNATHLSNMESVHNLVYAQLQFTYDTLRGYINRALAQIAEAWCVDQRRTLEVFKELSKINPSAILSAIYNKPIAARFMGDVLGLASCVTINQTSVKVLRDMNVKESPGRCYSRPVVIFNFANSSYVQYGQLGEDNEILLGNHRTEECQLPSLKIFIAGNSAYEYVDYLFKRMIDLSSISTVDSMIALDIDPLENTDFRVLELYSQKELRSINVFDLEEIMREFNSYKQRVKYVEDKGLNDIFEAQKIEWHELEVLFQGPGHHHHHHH

[3] = target: T3, gB_Towne protein with N302 mutated into glutamine (human cytomegalovirus, strain Towne, UniProt F5HB53 25-700); test: as above
T3 chain: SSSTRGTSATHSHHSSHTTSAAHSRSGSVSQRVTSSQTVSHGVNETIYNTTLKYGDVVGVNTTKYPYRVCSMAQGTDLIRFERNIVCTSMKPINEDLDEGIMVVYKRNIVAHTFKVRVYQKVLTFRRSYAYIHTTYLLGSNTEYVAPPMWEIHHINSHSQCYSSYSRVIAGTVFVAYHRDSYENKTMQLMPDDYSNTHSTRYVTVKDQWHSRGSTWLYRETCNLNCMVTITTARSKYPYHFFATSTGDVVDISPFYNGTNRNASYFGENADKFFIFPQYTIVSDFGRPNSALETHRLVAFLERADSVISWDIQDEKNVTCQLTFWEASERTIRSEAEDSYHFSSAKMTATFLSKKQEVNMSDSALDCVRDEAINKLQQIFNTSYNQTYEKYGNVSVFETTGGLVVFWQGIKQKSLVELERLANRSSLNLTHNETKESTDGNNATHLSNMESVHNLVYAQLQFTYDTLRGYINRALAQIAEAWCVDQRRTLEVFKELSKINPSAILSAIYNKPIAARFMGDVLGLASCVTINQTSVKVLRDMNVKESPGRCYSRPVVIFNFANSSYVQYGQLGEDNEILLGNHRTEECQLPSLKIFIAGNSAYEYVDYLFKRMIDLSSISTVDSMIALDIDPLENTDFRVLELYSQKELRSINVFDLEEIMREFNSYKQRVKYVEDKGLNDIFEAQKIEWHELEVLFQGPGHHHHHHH

[4] = target: T4, homologous sequence of gB glycoprotein of 56 virus strains (gB_Con. Strain) (human cytomegalovirus (homologous …, UniProt P06473 25-699)); test: ELISA, HEK293 culture supernatant on gB
T4 construct: C-terminal tags are part of the entry
T4 chain: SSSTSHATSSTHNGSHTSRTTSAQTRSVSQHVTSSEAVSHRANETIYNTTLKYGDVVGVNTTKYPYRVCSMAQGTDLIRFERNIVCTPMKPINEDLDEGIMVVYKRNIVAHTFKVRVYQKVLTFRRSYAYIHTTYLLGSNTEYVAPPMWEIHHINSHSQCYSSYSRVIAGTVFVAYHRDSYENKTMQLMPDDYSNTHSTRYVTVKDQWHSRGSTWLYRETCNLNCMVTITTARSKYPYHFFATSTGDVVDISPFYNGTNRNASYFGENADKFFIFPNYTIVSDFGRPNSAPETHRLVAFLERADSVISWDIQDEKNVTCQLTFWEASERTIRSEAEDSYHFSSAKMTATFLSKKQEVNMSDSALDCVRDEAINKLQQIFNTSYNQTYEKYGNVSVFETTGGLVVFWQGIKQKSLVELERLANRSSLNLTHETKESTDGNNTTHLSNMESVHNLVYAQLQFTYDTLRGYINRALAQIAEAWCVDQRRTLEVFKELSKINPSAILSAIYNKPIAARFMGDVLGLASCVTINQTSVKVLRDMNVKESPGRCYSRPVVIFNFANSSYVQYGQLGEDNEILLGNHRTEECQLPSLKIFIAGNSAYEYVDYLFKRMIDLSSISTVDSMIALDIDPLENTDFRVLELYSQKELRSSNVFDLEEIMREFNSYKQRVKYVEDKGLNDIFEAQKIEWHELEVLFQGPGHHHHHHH

Measured: binding result

B1: TRN1019 (antibody, V domains shown)
VH: QVQLVQSGAEVKKPGESLKISCKGSGYTFTNYWIGWVRQMPGAGLEWMAIIFPRDSYSAYSPSFQGRVTISVDKSISTAYLHWSSLEASDTAVYYCAIYNDLRSGNSWGQGTPLIVSS
VL: DIQMTQSPSSLSASVGDRVTITCRASQSITKYLNWYQQKPGRAPKLLIHTTSTLQSGVPSRFSGSGSGTDFTLTISSLQLEDFGTYYCQQSFSTLWTFGQGTKLDIKR
notes: Fully human antibody; kappa light chain
binds: all assays above
